The results in this text go back to patent US20250236667A1, “ANTIBODIES TO MUTANT CALRETICULIN AND USES THEREOF” (CENTRAL ADELAIDE LOCAL HEALTH NETWORK INC, priority 2021, published 2025).

What all share (assay type): cell-based, human
In one assay the test system is JAK2 V617F SET2 cells. Briefly: Cell proliferation, trypan blue exclusion. As to conditions: 2, 10 or 20 μg/mL. The procedure:
(§1) A. Cytokine dependent TF-1 TpoR cells with an overexpression of WT CALR cultured in the absence of TPO, 10 ng/ml hTPO and 10 or 20 μg/mL 4D7 anti-mutant CALR antibody or 20 μg/mL control IgG antibody for 5 days and the number of trypan blue negative cells were counted every 24 hours (n=3). B. Cytokine dependent TF-1 CALR^del52 cells, lacking TpoR were cultured in the presence of 2 ng/mL GM-CSF and 10 or 20 μg/mL 4D7 or 20 μg/mL control IgG antibody (n=3). C. Cytokine dependent TF-1 CALR^del61 cells, lacking TpoR were cultured in the presence of 2 ng/ml GM-CSF and 10 or 20 μg/mL 4D7 or 20 μg/mL control IgG antibody (n=3). D. MARIMO cells from which the CALR^del61 mutation was originally amplified were cultured in the presence of 2, 10 or 20 μg/mL 4D7 or 20 μg/mL control IgG antibody (n=3). E. Cytokine independent SET2 cells which harbour the pathogenic JAK2^V617F mutation were cultured in the presence of 2, 10 or 20 μg/mL 4D7 or 20 μg/mL control IgG antibody (n=3). F. Cytokine independent TF-1 PTPN11^E76K cells were cultured in the presence of 10 or 20 μg/mL 4D7 or 20 μg/mL control IgG antibody (n=3).
(§2) In brief, cells were seeded at 5×10^4/mL in standard growth media, with any necessary cytokines, and the addition of 20 μg/mL IgG or 2, 10 or 20 μg/mL 4D7. Cells were seeded in triplicate and each well was counted in triplicate every 24 hours for 5 days using trypan blue exclusion.

In a further assay the test system is MARIMO cells. Briefly: Cell proliferation, trypan blue exclusion. As to conditions: 2, 10 or 20 μg/mL. The procedure:
as §1, §2

Assay [1] deals with TF-1 CALR^del52 cells, lacking TpoR. Description: Cell proliferation, trypan blue exclusion. To be noted: 2 ng/mL GM-CSF; 10 or 20 μg/mL. The method, then:
as §1, §2

Assay [2] relates to TF-1 CALR^del61 cells, lacking TpoR. Description: Cell proliferation, trypan blue exclusion. As to conditions: 2 ng/ml GM-CSF; 10 or 20 μg/mL. The procedure: as §1, §2
Assay [3] has as its system TF-1 cells with overexpression of wild type CALR. Description: Cell proliferation, trypan blue exclusion. As to conditions: 10 or 20 μg/mL; 10 ng/ml hTPO. The procedure:
as §1, §2

The test system of assay [4] is TF-1 expressing the PTPN11 E76K mutation. Description: Cell proliferation, trypan blue exclusion. As to conditions: 10 or 20 μg/mL. The method, then:
as §1, §2

For assay [5], the system named is ruxolitinib-resistant TF-1 TpoR CALR^del61 cells. Description: Cell growth in liquid culture, trypan blue exclusion. As to conditions: 20 μg/mL, 96 hours. The procedure: A. Graph showing effect of ruxolitinib on megakaryocyte differentiation at 50 and 100 nM in healthy CD34+ cells (n=4). B. Effect of 4D7 on TPO-dependent megakaryocyte differentiation of healthy CD34+ cells cultured with 20 μg/mL 4D7 or IgG control (n=4). C. Total numbers of hematopoietic colonies plated in MethoCult from healthy cord blood after treatment with 4D7 or IgG. CFU-GM, colony forming unit-granulocyte macrophage: BFU-E, blast forming unit-erythroid: CFU-GEMM, colony forming unit granulocyte, erythroid, monocyte, megakaryocyte (n=3).D. CD41+megakaryocyte colonies from healthy CD34+ cells observed on collagen matrix after 4D7 treatment. Colonies were cultured in TPO, SCF. IL-9 and IL-3. E. Number of megakaryocyte colony forming units observed in MegaCult assay after treatment of healthy cord blood CD34+ cells with either IgG or 4D7 (n=3). F. Western blot showing signalling in ruxolitinib-resistant TF-1 TpoR CALR^del61 compared to ruxolitinib sensitive TF-1 TpoR CALR^del61 cells after treatment with 100 nM ruxolitinib for 16 hours or 30 minutes and blotted for phospho-STAT5, total STAT5, phospho-ERK, total ERK and actin as indicated. Ruxolitinib-sensitive cells were non-viable after 16 hours of treatment. […] Cells counted using Trypan Blue exclusion with replicate wells (n=3). […]

B1: 4D7: rat monoclonal IgG2a antibody against the mutant CALR neoepitope; VH SEQ ID NO: 5, VL SEQ ID NO: 7 (antibody, listed as Rattus rattus, V domains shown)
VH: QVQLQQSGAELAKPGSSVKISCKASGYTFTNYDMSWIKQRPGQALEWIGAINPGNGVTDYNEKFRGKATLTVDKSSSTAFMQLSSLTPEDTAVYHCAREYRDNYGYFDYWGQGVMVTVSS
VL: DIVLTQTPVSLSVTLGDQASISCRSSQSLEYSDGYTYLDWFLQKPGQSPQLLIYEVSSRFSGVPDRFIGRGSGTDFTLKISRVEPEDLGVYYCFQATHDPFTFGSGTKLEIK
In the case of B1, the inhibition of proliferation result with JAK2 V617F SET2 cells is recorded as “no inhibition”; in the assay on MARIMO cells, “did not show inhibition”; in assay [3], “No inhibition”; in assay [4], “no inhibition”. For the same molecule, the effect on proliferation entry in assay [1] and in assay [2] was “unaffected” throughout. Also, in assay [5], the “inhibitory activity on cell growth in liquid culture” value is reported as “strong inhibitory activity”.
